# Paper PMC7211993
# Columns and labels:
# [1] = biological target: MDA-modified bovine serum albumin (bovine) (UniProt P02769); test: ELISA; plasma added to coated MDA-BSA; bound CFH/FHL-1 detected with a monoclonal antibody that recognizes SCR5; read-out RLU/100 ms
# [2] = biological target: MDA-modified bovine serum albumin (bovine) (UniProt P02769); test: MST; microscale thermophoresis with both binding partners in fluid phase
# MDA-modified bovine serum albumin (bovine), sequence (P02769 25-607): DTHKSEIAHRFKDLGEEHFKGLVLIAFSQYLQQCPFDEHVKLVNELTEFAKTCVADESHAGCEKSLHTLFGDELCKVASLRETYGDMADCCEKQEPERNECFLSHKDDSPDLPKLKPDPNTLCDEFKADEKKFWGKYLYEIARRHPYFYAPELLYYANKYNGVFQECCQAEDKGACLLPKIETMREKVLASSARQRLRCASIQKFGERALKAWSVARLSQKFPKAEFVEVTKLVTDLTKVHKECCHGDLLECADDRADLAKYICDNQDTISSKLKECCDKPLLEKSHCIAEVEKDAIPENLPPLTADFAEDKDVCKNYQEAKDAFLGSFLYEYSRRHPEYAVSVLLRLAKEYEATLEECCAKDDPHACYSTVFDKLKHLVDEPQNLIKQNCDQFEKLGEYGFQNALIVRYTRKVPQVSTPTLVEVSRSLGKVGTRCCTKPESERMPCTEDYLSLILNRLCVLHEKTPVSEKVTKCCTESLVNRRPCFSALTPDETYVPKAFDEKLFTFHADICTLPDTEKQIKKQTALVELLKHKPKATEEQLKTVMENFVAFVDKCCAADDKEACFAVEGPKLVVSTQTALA
# complement factor H and its splice variant factor H-like protein 1 in plasma (study cohorts, all rs1061170 genotypes), sequence (P08603 19-1231, change not shown): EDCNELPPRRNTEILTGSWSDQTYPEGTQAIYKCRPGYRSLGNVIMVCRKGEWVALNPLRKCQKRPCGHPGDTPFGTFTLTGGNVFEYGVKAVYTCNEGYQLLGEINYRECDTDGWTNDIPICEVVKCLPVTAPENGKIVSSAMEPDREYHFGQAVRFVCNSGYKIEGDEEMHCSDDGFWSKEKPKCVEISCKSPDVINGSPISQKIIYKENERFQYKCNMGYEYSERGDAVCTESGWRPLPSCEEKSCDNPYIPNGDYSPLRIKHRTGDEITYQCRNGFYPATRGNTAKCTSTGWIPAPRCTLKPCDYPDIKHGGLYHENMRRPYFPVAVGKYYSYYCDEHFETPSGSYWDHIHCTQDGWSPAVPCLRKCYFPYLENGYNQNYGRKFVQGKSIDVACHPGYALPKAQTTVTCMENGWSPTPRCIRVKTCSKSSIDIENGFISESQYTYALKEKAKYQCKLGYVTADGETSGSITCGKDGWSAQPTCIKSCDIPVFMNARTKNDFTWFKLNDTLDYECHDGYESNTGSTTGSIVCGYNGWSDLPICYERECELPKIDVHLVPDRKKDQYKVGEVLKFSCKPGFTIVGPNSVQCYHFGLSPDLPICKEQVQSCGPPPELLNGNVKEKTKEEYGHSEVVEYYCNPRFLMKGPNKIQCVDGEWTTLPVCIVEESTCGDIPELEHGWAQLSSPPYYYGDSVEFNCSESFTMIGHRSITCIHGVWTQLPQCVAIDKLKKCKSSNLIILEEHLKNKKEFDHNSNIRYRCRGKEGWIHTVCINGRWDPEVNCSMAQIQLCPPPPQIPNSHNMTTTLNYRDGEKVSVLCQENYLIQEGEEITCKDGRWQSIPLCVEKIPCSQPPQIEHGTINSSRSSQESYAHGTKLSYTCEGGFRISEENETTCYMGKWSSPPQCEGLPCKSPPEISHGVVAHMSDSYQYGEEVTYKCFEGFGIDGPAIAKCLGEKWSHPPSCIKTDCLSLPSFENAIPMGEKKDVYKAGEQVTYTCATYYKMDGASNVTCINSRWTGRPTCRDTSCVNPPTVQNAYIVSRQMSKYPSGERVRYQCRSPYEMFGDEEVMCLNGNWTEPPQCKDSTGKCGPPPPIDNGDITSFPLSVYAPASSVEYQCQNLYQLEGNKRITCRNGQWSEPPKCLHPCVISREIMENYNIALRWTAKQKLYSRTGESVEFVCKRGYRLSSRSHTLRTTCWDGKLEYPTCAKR
"binding to MDA-BSA, median of healthy individuals (n = 934) [1] [RLU/100 ms]","binding to MDA-BSA, median of patients with major depression (n = 896) [1] [RLU/100 ms]","binding to MDA-BSA, median of the integrated cohort (n = 1,830) [1] [RLU/100 ms]",Kd [2] [nM],Substance
24200,24800,24600,,"complement factor H and its splice variant factor H-like protein 1 in plasma (study cohorts, all rs1061170 genotypes) (from UniProt P08603 19-1231) (natural protein)"
,,,860,recombinant complement factor H-related protein 1 (from UniProt Q03591 19-330) (natural protein)
,,,3480,recombinant complement factor H-related protein 3 (from UniProt Q02985 19-330) (natural protein)
